{"source": "patent US10328148B2", "about": "“Protein drug formulations and packages” (Purdue Research Foundation, priority 2010, dated 2019)", "molecules": {"B1": {"name": "Protein G: free Protein G, immunoglobulin-binding protein used as polyamino acid ligand (protein)", "chain": "TYKLILNGKTLKGETTTEAVDAATAEKVFKQYANDNGVDGEWTYDDATKTFTVTEKPEVIDASELTPAVTTYKLVINGKTLKGETTTEAVDAATAEKVFKQYANDNGVDGEWTYDDATKTFTVTEKPEVIDASELTPAVTTYKLVINGKTLKGETTTKAVDAETAEKAFKQYANDNGVDGVWTYDDATKTFTVTE"}}, "test_system": "IgG", "experiment": "HP-SEC of IgG with free Protein A or Protein G: complex formation and agitation-induced aggregation", "type": "physicochemical", "conditions": "IgG:Protein A or G ratio 1:4, RT 2 h", "protocol": "Effect of proteins A and G on aggregation of IgG. High performance size exclusion chromatography (HP-SEC) is used to verify that IgG binds with Protein A or Protein G completely. 50 µL aliquots are injected to a Tosoh TSK G 13000 SWXL Gel 3000 column ([…]×7.8 mm) and separated at a flow rate of 0.5 mL/min. The mobile phase contains 50 mM potassium phosphate and 100 mM K2SO4 at pH 7.1. The relative percentage of IgG monomer and dimer are calculated in triplicate as a percentage of the total chromatographic peak area at 280 nm. Fresh IgG is incubated with free Protein A or free Protein G, respectively, at IgG:Protein A or G ratio of 1:4 at RT for 2 h before being subjected to agitation. […] Effect of agitation of protein A and protein G complexes of IgG. The prior Example 1 is repeated, subjecting the IgG+Protein A or IgG+Protein G to agitation on a shaker at room temperature for 44 h.", "data": [{"molecule": "B1", "values": [{"measurement": "Complex formation with IgG by HP-SEC", "value": "formation of IgG-Protein A and IgG-Protein G complexes"}]}]}
